Patent US20250115677A1, “Anti-CEA Antibody Drug Conjugates and Methods of Use” (BeiGene Switzerland GmbH, priority 2022, published 2025)

Experiments:
[1] = target: T1, CEACAM6 (bar group in Fig. 9B, flow cytometry) (human, UniProt P40199); test: flow cytometry, Alexa Fluor 647 anti-human IgG Fc
T1 construct: on cells (flow cytometry)
T1 sequence (single chain, looked up): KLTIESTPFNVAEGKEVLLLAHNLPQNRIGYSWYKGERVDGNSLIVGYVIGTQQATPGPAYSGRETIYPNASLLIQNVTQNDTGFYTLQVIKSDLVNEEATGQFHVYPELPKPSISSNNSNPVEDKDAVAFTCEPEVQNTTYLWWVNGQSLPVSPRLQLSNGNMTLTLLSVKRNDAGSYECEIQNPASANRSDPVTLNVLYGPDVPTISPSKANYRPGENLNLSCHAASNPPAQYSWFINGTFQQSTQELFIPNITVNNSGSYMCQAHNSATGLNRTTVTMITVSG
Method: (§1) Cell fluorescence was quantified using a flow cytometer (Guava easyCyte™ 8HT, Merck-Millipore, USA). For antigen ELISA, CEACAM1(SEQ ID NO:64) (Cat. No. 10822-H08H, Sino Biological, China), CHIM (SEQ ID NO:63), CEA (SEQ ID NO:55) or CEACAM6 (SEQ ID NO:57) were coated in 96-well plates at a concentration of 10 μg/ml overnight at 4° C.

[2] = target: T2, human CEA on cells (MKN45, LOVO, NCI-H2122, LS174T, CT26/CEA) (human, UniProt P06731 35-685); test: flow cytometry on MKN45 cells, BGA5384 premixed with 2.00 ug/ml recombinant soluble CEA (competitor), anti-huFc-APC
T2 construct: Full-length human CEA, endogenous on tumour cell lines or transduced; also called native CEA on living cells; huCEA surface protein
T2 sequence: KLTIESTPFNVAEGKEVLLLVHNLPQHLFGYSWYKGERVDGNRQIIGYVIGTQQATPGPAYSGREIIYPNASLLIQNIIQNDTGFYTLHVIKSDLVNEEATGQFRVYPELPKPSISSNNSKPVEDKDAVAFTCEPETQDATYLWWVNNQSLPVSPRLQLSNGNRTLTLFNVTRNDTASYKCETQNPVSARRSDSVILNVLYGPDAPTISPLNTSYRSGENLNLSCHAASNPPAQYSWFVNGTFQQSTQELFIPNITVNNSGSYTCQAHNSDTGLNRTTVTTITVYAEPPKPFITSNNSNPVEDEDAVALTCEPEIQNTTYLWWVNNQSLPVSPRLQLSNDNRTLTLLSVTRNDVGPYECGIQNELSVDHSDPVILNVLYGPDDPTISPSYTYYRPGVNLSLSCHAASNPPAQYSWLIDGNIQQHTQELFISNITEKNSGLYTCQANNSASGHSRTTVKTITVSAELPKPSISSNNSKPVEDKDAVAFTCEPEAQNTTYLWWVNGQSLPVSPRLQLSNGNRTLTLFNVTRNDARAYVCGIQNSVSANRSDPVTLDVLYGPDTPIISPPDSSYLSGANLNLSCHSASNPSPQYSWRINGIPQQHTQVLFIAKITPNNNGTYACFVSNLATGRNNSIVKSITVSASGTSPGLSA
Method: (§2) The mixtures were then incubated with 2×10^5 CEA-expressing cells, such as MKN45 cells, for 30 minutes at 4° C. The cells were stained with secondary antibody anti-huFc-APC (Cat. No. 409320, BioLegend, USA) and analyzed by flow cytometry.

[3] = target: T2, human CEA on cells (MKN45, LOVO, …); test: flow cytometry on MKN45 cells, BGA5384 premixed with 1.00 ug/ml recombinant soluble CEA (competitor), anti-huFc-APC
Method: as §2

[4] = target: T3, recombinant human CEACAM6 (AA 1-320, C-terminal 6xHis) (human, UniProt P40199 35-320); test: antigen ELISA, antigen coated at 10 ug/ml, HRP anti-human Fc
T3 sequence: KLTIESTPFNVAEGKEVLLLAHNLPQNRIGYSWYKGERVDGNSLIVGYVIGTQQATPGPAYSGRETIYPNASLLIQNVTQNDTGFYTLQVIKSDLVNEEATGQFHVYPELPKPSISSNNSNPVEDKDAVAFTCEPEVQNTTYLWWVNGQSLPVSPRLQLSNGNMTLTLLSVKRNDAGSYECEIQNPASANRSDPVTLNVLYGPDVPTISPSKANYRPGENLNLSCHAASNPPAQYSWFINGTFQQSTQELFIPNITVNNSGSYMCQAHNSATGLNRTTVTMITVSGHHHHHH
Method: as §1

[5] = target: T2, human CEA on cells (MKN45, LOVO, …); test: flow cytometry on MKN45 cells, no soluble CEA, anti-huFc-APC
Method: as §2

[6] = target: T2, human CEA on cells (MKN45, LOVO, …); test: flow cytometry on MKN45 cells, BGA5384 premixed with 0.50 ug/ml recombinant soluble CEA (competitor), anti-huFc-APC
Method: as §2

[7] = target: T2, human CEA on cells (MKN45, LOVO, …); test: flow cytometry (MFI) on CEA-expressing MKN45 cells
Method: For flow cytometry, CEA-expressing MKN45 cells (10^5 cells/well) were incubated with various concentrations of purified affinity-matured antibodies, followed by binding with Alexa Fluor-647-labeled anti-hu IgG Fc antibody (Cat. No. 409320, BioLegend, USA). Cell fluorescence was quantified using a flow cytometer (Guava easyCyte™ 8HT, Merck-Millipore, USA).

B1: BGA5384 (antibody, human IgG1, kappa, V domains shown)
VH: QVQLVQSGAEVKKPGASVKVSCKASGYIFTSYYLHWVRQAPGQGLEWIGYINPQTGKTSYAQKFQGRVTMTRDTSTSTVYMELSSLRSEDTAVYYCAREYGNYNYPLDYWGQGTLVTVSS
VL: DIQMTQSPSSLSASVGDRVTITCRASENQYGYLAWYQQKPGKVPKLLIYNYKNLVEGVPSRFSGSGSGTDFTLTISSLQPEDVATYYCQHHLGTPYTFGQGTKVEIKR
notes: BGA6710 with Y57K in VH; human IgG1 format; also called BGA7592-1K
- binding result [1]: no binding
- EC50 (read off the curve) [2]: ~2 µg/mL
- EC50 (read off the curve) [3]: ~2 µg/mL
- binding result [4]: no binding
- EC50 (read off the curve) [5]: ~0.7 µg/mL
- EC50 (read off the curve) [6]: ~1 µg/mL
- EC50 [7]: 2.92 µg/mL
